The values that follow come from the Immune Epitope Database (IEDB).

Where only a bound is given, the exact number is not on record here.

The experiment deals with HLA-A*02:01. The experiment can be described thus: IEDB peptide-MHC binding, purified MHC/competitive/radioactivity; filed as Kd, often an IC50 or EC50 that approximates it; ≥ and ≤ were set here for values at or beyond the usual limits of such assays. To be noted: source organism: Homo sapiens.
Take ALTGTEKL: the Kd is no less than 50000 nM.

For ALTGTEKLI, the Kd was no less than 50000 nM.

ALTVVWLL: the Kd was 7140 nM.

With CLVGAPFASLC, the Kd came to 6250 nM.

For the sequence FACSAVPVYI, the Kd turned out to be 781 nM.

Take FLPRHRDTGI: the Kd was no less than 5000 nM.

In the case of FLPRHRDTGIL, the Kd is no less than 50000 nM.

As to FLYGALLL, the Kd came to 143 nM.

Regarding FLYGALLLA, the Kd worked out at 2.6 nM.

FMIAATYNFAV: the Kd came to 10 nM.

As to GLCFFGVAL, the Kd was determined as 4170 nM.

Regarding GLLECCARCLV, the Kd came to 96 nM.

For the sequence HLFIAAFV, the Kd is 1090 nM.

As for IAATYNFAV, the Kd is 93 nM.

KVCGSNLLSI: the dissociation constant (Kd) was determined as 4540 nM.

LLVFACSAVPV: the Kd came out at 1000 nM.

Regarding LVFACSAVPV, the Kd was 1610 nM.

On to LVLFACSAV, for which the Kd was 455 nM.

Turning to LVSLLTFMI, the equilibrium dissociation constant (Kd) was 1920 nM.

Turning to QMTFHLFI, the Kd was 1850 nM.

As for QMTFHLFIA, the Kd turned out to be 1670 nM.

Consider RMYGVLPWI, for which the Kd was 29 nM.

With SLCADARMYGV, the Kd amounted to 357 nM.

Regarding SLLTFMIAA, the Kd stood at 9.4 nM.

Turning to SLSRFSWGA, the Kd worked out at 909 nM.

For the sequence TLSKIFKL, the Kd stood at 2380 nM.

For TLVSLLTFMI, the Kd turned out to be 2630 nM.

Regarding VIHAFQYVI, the dissociation constant Kd was determined as 1220 nM.

Consider VLPWIAFPGKV, for which the Kd came out at 1280 nM.

Turning to VVHFFKNIV, the Kd was no less than 50000 nM.

With WLGHPDKFV, the Kd is no less than 50000 nM.

For WLGHPDKFVGI, the Kd is no less than 25000 nM.

As to WLLVFACSA, the Kd was no less than 50000 nM.

On to WLLVFACSAV, for which the Kd was found to be 1350 nM.

YALTVVWLL: the Kd was found to be 119 nM.

Take YALTVVWLLV: the Kd amounted to 658 nM.

Usually Kd stands for the free concentration of one partner at which half of the binding sites on the other are occupied at equilibrium, for simple one-to-one binding.
